Test results published in patent publication US7256012B2, “Fluorogenic protease substrates based on dye-dimerization” (3M Innovative Properties Company, priority 1997, dated 2007).

Biological target: T1, trypsin (Bos taurus, UniProt P00760)
T1 construct: gene PRSS1
T1 sequence (P00760 24-246): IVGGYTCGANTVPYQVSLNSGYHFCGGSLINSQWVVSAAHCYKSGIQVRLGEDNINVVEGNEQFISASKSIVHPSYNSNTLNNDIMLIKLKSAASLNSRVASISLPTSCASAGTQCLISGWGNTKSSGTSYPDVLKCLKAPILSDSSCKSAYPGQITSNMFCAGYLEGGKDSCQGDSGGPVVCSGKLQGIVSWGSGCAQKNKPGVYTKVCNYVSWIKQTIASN
Test: Hydrolysis of fluorogenic protease substrate by purified enzyme (trypsin), fluorescence intensity
Assay type: biochemical
Conditions: for Average ratio w/ trypsin to w/o trypsin: average over emission 570-585 nm
Experimental: Enzymatic hydrolysis of the substrate from Example 1 was carried out in 50 mM carbonate buffer, pH 8.9 at room temperature. Fluorescence intensity of the solution prior to treatment with trypsin and after treatment with trypsin is shown in Table 1, for excitation wavelengths of 360 nm, 522 nm, 530 nm, and 553 nm, respectively. […] This is a characteristic of dye dimerization or stacking, as described above. […] Both the fluorescence and absorption results provided convincing evidence that ground-state interactions existed between dye molecules in the conjugate and became diminished after enzymatic cleavage.

[1] = Excitation 360 nm, emission 570 nm
[2] = Excitation 360 nm, emission 571 nm
[3] = Excitation 360 nm, emission 572 nm
[4] = Excitation 360 nm, emission 573 nm
[5] = Excitation 360 nm, emission 574 nm
[6] = Excitation 360 nm, emission 575 nm
[7] = Excitation 360 nm, emission 576 nm
[8] = Excitation 360 nm, emission 577 nm
[9] = Excitation 360 nm, emission 578 nm
[10] = Excitation 360 nm, emission 579 nm
[11] = Excitation 360 nm, emission 580 nm
[12] = Excitation 360 nm, emission 581 nm
[13] = Excitation 360 nm, emission 582 nm
[14] = Excitation 360 nm, emission 583 nm
[15] = Excitation 360 nm, emission 584 nm
[16] = Excitation 360 nm, emission 585 nm
[17] = Excitation 522 nm, emission 570 nm
[18] = Excitation 522 nm, emission 571 nm
[19] = Excitation 522 nm, emission 572 nm
[20] = Excitation 522 nm, emission 573 nm
[21] = Excitation 522 nm, emission 574 nm
[22] = Excitation 522 nm, emission 575 nm
[23] = Excitation 522 nm, emission 576 nm
[24] = Excitation 522 nm, emission 577 nm
[25] = Excitation 522 nm, emission 578 nm
[26] = Excitation 522 nm, emission 579 nm
[27] = Excitation 522 nm, emission 580 nm
[28] = Excitation 522 nm, emission 581 nm
[29] = Excitation 522 nm, emission 582 nm
[30] = Excitation 522 nm, emission 583 nm
[31] = Excitation 522 nm, emission 584 nm
[32] = Excitation 522 nm, emission 585 nm

TMR-Val-Pro-Arg-Gly-Lys-TMR (XPRGX; not fully specified; TMR dye at both ends) [T-VPRGK-T]
Average ratio w/ trypsin to w/o trypsin (Excitation 360 nm): 26 | Fluorescence intensity w/ trypsin [1]: 8625 | Fluorescence intensity w/o trypsin [1]: 319 | ratio w/ trypsin to w/o trypsin [1]: 27 | Fluorescence intensity w/ trypsin [2]: 8817 | Fluorescence intensity w/o trypsin [2]: 347 | ratio w/ trypsin to w/o trypsin [2]: 25 | Fluorescence intensity w/ trypsin [3]: 9322 | Fluorescence intensity w/o trypsin [3]: 369 | ratio w/ trypsin to w/o trypsin [3]: 25 | Fluorescence intensity w/ trypsin [4]: 9189 | Fluorescence intensity w/o trypsin [4]: 365 | ratio w/ trypsin to w/o trypsin [4]: 25 | Fluorescence intensity w/ trypsin [5]: 9629 | Fluorescence intensity w/o trypsin [5]: 354 | ratio w/ trypsin to w/o trypsin [5]: 27 | Fluorescence intensity w/ trypsin [6]: 9719 | Fluorescence intensity w/o trypsin [6]: 410 | ratio w/ trypsin to w/o trypsin [6]: 24 | Fluorescence intensity w/ trypsin [7]: 9759 | Fluorescence intensity w/o trypsin [7]: 401 | ratio w/ trypsin to w/o trypsin [7]: 24 | Fluorescence intensity w/ trypsin [8]: 9776 | Fluorescence intensity w/o trypsin [8]: 378 | ratio w/ trypsin to w/o trypsin [8]: 26 | Fluorescence intensity w/ trypsin [9]: 9981 | Fluorescence intensity w/o trypsin [9]: 379 | ratio w/ trypsin to w/o trypsin [9]: 26 | Fluorescence intensity w/ trypsin [10]: 9872 | Fluorescence intensity w/o trypsin [10]: 392 | ratio w/ trypsin to w/o trypsin [10]: 25 | Fluorescence intensity w/ trypsin [11]: 9788 | Fluorescence intensity w/o trypsin [11]: 361 | ratio w/ trypsin to w/o trypsin [11]: 27 | Fluorescence intensity w/ trypsin [12]: 9960 | Fluorescence intensity w/o trypsin [12]: 375 | ratio w/ trypsin to w/o trypsin [12]: 27 | Fluorescence intensity w/ trypsin [13]: 9783 | Fluorescence intensity w/o trypsin [13]: 376 | ratio w/ trypsin to w/o trypsin [13]: 26 | Fluorescence intensity w/ trypsin [14]: 9591 | Fluorescence intensity w/o trypsin [14]: 347 | ratio w/ trypsin to w/o trypsin [14]: 28 | Fluorescence intensity w/ trypsin [15]: 9387 | Fluorescence intensity w/o trypsin [15]: 385 | ratio w/ trypsin to w/o trypsin [15]: 24 | Fluorescence intensity w/ trypsin [16]: 9427 | Fluorescence intensity w/o trypsin [16]: 353 | ratio w/ trypsin to w/o trypsin [16]: 27 | Average ratio w/ trypsin to w/o trypsin (Excitation 522 nm): 28 | Fluorescence intensity w/ trypsin [17]: 40193 | Fluorescence intensity w/o trypsin [17]: 1378 | ratio w/ trypsin to w/o trypsin [17]: 29 | Fluorescence intensity w/ trypsin [18]: 41416 | Fluorescence intensity w/o trypsin [18]: 1525 | ratio w/ trypsin to w/o trypsin [18]: 27 | Fluorescence intensity w/ trypsin [19]: 42506 | Fluorescence intensity w/o trypsin [19]: 1480 | ratio w/ trypsin to w/o trypsin [19]: 29 | Fluorescence intensity w/ trypsin [20]: 43406 | Fluorescence intensity w/o trypsin [20]: 1509 | ratio w/ trypsin to w/o trypsin [20]: 29 | Fluorescence intensity w/ trypsin [21]: 44241 | Fluorescence intensity w/o trypsin [21]: 1645 | ratio w/ trypsin to w/o trypsin [21]: 27 | Fluorescence intensity w/ trypsin [22]: 45037 | Fluorescence intensity w/o trypsin [22]: 1643 | ratio w/ trypsin to w/o trypsin [22]: 27 | Fluorescence intensity w/ trypsin [23]: 45519 | Fluorescence intensity w/o trypsin [23]: 1587 | ratio w/ trypsin to w/o trypsin [23]: 29 | Fluorescence intensity w/ trypsin [24]: 45648 | Fluorescence intensity w/o trypsin [24]: 1672 | ratio w/ trypsin to w/o trypsin [24]: 27 | Fluorescence intensity w/ trypsin [25]: 45980 | Fluorescence intensity w/o trypsin [25]: 1629 | ratio w/ trypsin to w/o trypsin [25]: 28 | Fluorescence intensity w/ trypsin [26]: 45745 | Fluorescence intensity w/o trypsin [26]: 1673 | ratio w/ trypsin to w/o trypsin [26]: 27 | Fluorescence intensity w/ trypsin [27]: 45757 | Fluorescence intensity w/o trypsin [27]: 1595 | ratio w/ trypsin to w/o trypsin [27]: 29 | Fluorescence intensity w/ trypsin [28]: 44936 | Fluorescence intensity w/o trypsin [28]: 1665 | ratio w/ trypsin to w/o trypsin [28]: 27 | Fluorescence intensity w/ trypsin [29]: 44724 | Fluorescence intensity w/o trypsin [29]: 1567 | ratio w/ trypsin to w/o trypsin [29]: 29 | Fluorescence intensity w/ trypsin [30]: 44076 | Fluorescence intensity w/o trypsin [30]: 1599 | ratio w/ trypsin to w/o trypsin [30]: 28 | Fluorescence intensity w/ trypsin [31]: 43282 | Fluorescence intensity w/o trypsin [31]: 1601 | ratio w/ trypsin to w/o trypsin [31]: 27 | Fluorescence intensity w/ trypsin [32]: 42928 | Fluorescence intensity w/o trypsin [32]: 1527 | ratio w/ trypsin to w/o trypsin [32]: 28
